Test results taken from the RNAGym collection of RNA variant scans (doi:10.1073/pnas.2313332121).

B1: TPR t1 (parent)
chain: GACCAAUCUGCCCUCAGAGCUCGAGAACAUCUUCGGAUGCAGAGGAGGCAGGCUUCGGUGGCGCGAUAGCGCCAACGUCCUCAACCUCCAAUGCAUCCCACCACAUGAUGAUGCCUGAAGAGCCUUGGUUUUUUG

Variants of: B1
Experiment: polymerase ribozyme fitness, log enrichment relative to wild type (log ratio); higher = more active; in vitro selection for triplet polymerase activity
Summary of the method: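 For each subunit of a heterodimeric triplet polymerase ribozyme, a mutant library was built by PCR and transcribed, then taken through a single in vitro selection round in triplicate. Selection involved annealing to a biotinylated primer, the partner subunit and triplets, incubation frozen at −7 °C, gel excision of extended constructs, capture on streptavidin beads and RT-PCR. Genotypes were retained after Illumina sequencing of inputs and outputs only with ≥10 input reads and ≥1 read in each output. Fitness is defined as the logarithm of a genotype's enrichment relative to wild-type enrichment, using inverse-variance-weighted averages across replicates, with the logarithm taken to base 2.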

Going from G60C C86A G117C C123U to G60C C97A, the “polymerase ribozyme fitness (log ratio)” value rises from -6.38 to -4.44.

First: G60C C97G U109A
Second: G60C C98G
The “polymerase ribozyme fitness (log ratio)” value of the first is lower: -7.09 for the first, -6.74 for the second.

Going from G60C C99U G117A U133G to G60C C104U U126A, the “polymerase ribozyme fitness (log ratio)” value rises from -6.01 to -1.46.

Going from G60C C123U to G60C C124A, the “polymerase ribozyme fitness (log ratio)” value rises from 0.343 to 1.07.

First: G60C C124G
Second: G60C G61C C73G C101G A111U G113C C123U U125G U126G
The “polymerase ribozyme fitness (log ratio)” value of the first is higher: 0.305 for the first, -7.1 for the second.

Compared with G60C G63A, G60C G69U G93A G113C is higher in “polymerase ribozyme fitness (log ratio)” value: -5.52 for the first, -5.05 for the second.

First: G60C G93A
Second: G60C G113C
The “polymerase ribozyme fitness (log ratio)” value of the first is higher: -0.963 for the first, -2.72 for the second.

First: G60C G117A
Second: G60C G127A
The “polymerase ribozyme fitness (log ratio)” value of the first is higher: -0.79 for the first, -1.59 for the second.

Going from G60C G128C to G60C U78A, the “polymerase ribozyme fitness (log ratio)” value rises from -2.73 to -0.111.

Going from G60C U78A A91U to G60C U81C U116A, the “polymerase ribozyme fitness (log ratio)” value falls from -2.07 to -2.88.

Going from G60C U87A C101U G117A U132A to G60C U109G, the “polymerase ribozyme fitness (log ratio)” value falls from -1.89 to -5.41.

Compared with G60C U130C, G60U A111G U126A is lower in “polymerase ribozyme fitness (log ratio)” value: -1.11 for the first, -1.33 for the second.

Compared with G60U A121G, G60U A121U C124A U131G is lower in “polymerase ribozyme fitness (log ratio)” value: 1.76 for the first, -3.49 for the second.

Compared with G60U C62G U92C, G60U C70U is higher in “polymerase ribozyme fitness (log ratio)” value: -2.78 for the first, -2.43 for the second.

Compared with G60U C79U G93A C102A, G60U C79U U81A C97A U106A is lower in “polymerase ribozyme fitness (log ratio)” value: -2.44 for the first, -6.56 for the second.

Compared with G60U C82U G110U, G60U C86U is higher in “polymerase ribozyme fitness (log ratio)” value: -1.72 for the first, -1.37 for the second.

Going from G60U C89U U92A A118U to G60U C94G G110C G117A, the “polymerase ribozyme fitness (log ratio)” value falls from -2.14 to -7.56.

Going from G60U C101U A111C to G60U C102U U116A, the “polymerase ribozyme fitness (log ratio)” value falls from 0.104 to -4.78.

Going from G60U C114A to G60U C115U, the “polymerase ribozyme fitness (log ratio)” value rises from -1.45 to -0.124.

First: G60U C123A
Second: G60U C124A
The “polymerase ribozyme fitness (log ratio)” value of the first is lower: 0.751 for the first, 1.7 for the second.

First: G60U G61A U106C G128A U130A
Second: G60U G63U G113U G117U
The “polymerase ribozyme fitness (log ratio)” value of the first is higher: -4.75 for the first, -5.19 for the second.

Compared with G60U G65U A121C, G60U G77C C89U U132A is higher in “polymerase ribozyme fitness (log ratio)” value: -6.44 for the first, -0.345 for the second.

First: G60U G110C
Second: G60U G135C
The “polymerase ribozyme fitness (log ratio)” value of the first is lower: -2.76 for the first, 0.0909 for the second.

Going from G60U G135U to G60U U92C U106C G107A U112C, the “polymerase ribozyme fitness (log ratio)” value falls from -0.871 to -6.06.

Compared with G60U U106G, G60U U116C is higher in “polymerase ribozyme fitness (log ratio)” value: -1.17 for the first, 0.0833 for the second.

First: G60U U116C U132A
Second: G61A A68G
The “polymerase ribozyme fitness (log ratio)” value of the first is higher: -0.473 for the first, -2.69 for the second.

G61A A74C and G61A A74C C79A U131G are within 0.2 log units of each other in “polymerase ribozyme fitness (log ratio)” value: -1.86 for the first, -1.98 for the second.

Going from G61A A74C G120U to G61A A74U G110U A118G, the “polymerase ribozyme fitness (log ratio)” value falls from -2.24 to -4.67.

First: G61A A84U G117A
Second: G61A A91C C94G A105C U109A A119C
The “polymerase ribozyme fitness (log ratio)” value of the first is higher: -1.64 for the first, -7.38 for the second.

Compared with G61A A91C C123U, G61A A95U A119U G120C C123A is higher in “polymerase ribozyme fitness (log ratio)” value: 0.543 for the first, 1.22 for the second.

Going from G61A A103G to G61A A103U, the “polymerase ribozyme fitness (log ratio)” value falls from -2.38 to -4.95.

Compared with G61A A111G, G61A A121U is higher in “polymerase ribozyme fitness (log ratio)” value: 0.971 for the first, 2.32 for the second.

First: G61A C64U C86A
Second: G61A C73A A118G
The “polymerase ribozyme fitness (log ratio)” value of the first is lower: -4.48 for the first, -1.71 for the second.

Going from G61A C73U U78A to G61A C79A C114A, the “polymerase ribozyme fitness (log ratio)” value falls from -0.265 to -3.21.

Going from G61A C79U C88A U129G to G61A C79U C104A C124A, the “polymerase ribozyme fitness (log ratio)” value rises from -1.53 to 0.783.

Going from G61A C85G G93A C101G to G61A C88G U129A, the “polymerase ribozyme fitness (log ratio)” value rises from -2.53 to -1.82.

Compared with G61A C88U C89A, G61A C88U U131G is higher in “polymerase ribozyme fitness (log ratio)” value: -1.82 for the first, -0.555 for the second.

Going from G61A C89A A90U A91G to G61A C97A C124U, the “polymerase ribozyme fitness (log ratio)” value falls from -1.77 to -3.09.

Going from G61A C97G C124U to G61A C102G, the “polymerase ribozyme fitness (log ratio)” value falls from -2.04 to -6.12.

Compared with G61A C114A, G61A C114U is lower in “polymerase ribozyme fitness (log ratio)” value: -0.372 for the first, -1.49 for the second.

Going from G61A C124A to G61A G63A, the “polymerase ribozyme fitness (log ratio)” value falls from 1.79 to -4.85.

First: G61A G65A
Second: G61A G69C
The “polymerase ribozyme fitness (log ratio)” value of the first is lower: -3.94 for the first, -3.18 for the second.
